# Test results published in US20130078234A1 (Daiichi Sankyo, published 2013).
# Where a chain is given by its changes, count along the chain named.
# T1: extracellular domain polypeptide of a recombinant B7-H3 variant 2 antigen (R&D Systems, Inc., #2318-B3-050/CF) (human, UniProt Q5ZPR3 29-466)
# T1 construct: Bought recombinant protein; also called recombinant B7-H3 antigen; B7-H3 antigen
# T1 sequence: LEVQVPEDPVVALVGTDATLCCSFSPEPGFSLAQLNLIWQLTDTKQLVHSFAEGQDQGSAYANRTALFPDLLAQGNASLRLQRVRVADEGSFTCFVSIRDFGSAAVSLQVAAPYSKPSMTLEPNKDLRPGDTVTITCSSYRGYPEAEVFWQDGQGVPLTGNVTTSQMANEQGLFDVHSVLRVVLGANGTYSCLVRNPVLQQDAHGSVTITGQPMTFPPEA
# B1: humanized M30 antibody M30-H1-L1 (antibody, human IgG1, kappa, V domains shown)
# VH: QVQLVQSGAEVKKPGSSVKVSCKASGYTFTNYVMHWVRQAPGQGLEWMGYINPYNDDVKYNEKFKGRVTITADESTSTAYMELSSLRSEDTAVYYCARWGYYGSPLYYFDYWGQGTLVTVSS
# VL: EIVLTQSPATLSLSPGERATLSCRASSRLIYMHWYQQKPGQAPRLLIYATSNLASGIPARFSGSGSGTDFTLTISRLEPEDFAVYYCQQWNSNPPTFGQGTKVEIKR
# notes: Human IgG1/kappa
# B2: humanized M30 antibody M30-H4-L3 (antibody, human IgG1, kappa, V domains shown)
# VH: B1 VH with Q1E, R38K, M48I, R67K, V68A, I70Q, A72S, E74K
# VL: B1 VL with E1Q, T5S, S22T, Q41S, R44K, L46W, D69S, F70Y
# notes: Human IgG1/kappa
# B3: humanized M30 antibody M30-H1-L3 (antibody, human IgG1, kappa, V domains shown)
# VH: B1 VH
# VL: B1 VL with E1Q, T5S, S22T, Q41S, R44K, L46W, D69S, F70Y
# notes: Human IgG1/kappa
# B4: humanized M30 antibody M30-H1-L5 (antibody, human IgG1, kappa, V domains shown)
# VH: B1 VH
# VL: B1 VL with E1Q, T5S, S22T, Q41S, R44K, L45P, L46W, D69S, F70Y
# notes: Human IgG1/kappa
# B5: humanized M30 antibody M30-H1-L4 (antibody, human IgG1, kappa, V domains shown)
# VH: B1 VH
# VL: B1 VL with L45P, R76S
# notes: Human IgG1/kappa; also called M30-H1-L4 antibody
# B6: humanized M30 antibody M30-H4-L2 (antibody, human IgG1, kappa, V domains shown)
# VH: B1 VH with Q1E, R38K, M48I, R67K, V68A, I70Q, A72S, E74K
# VL: B1 VL with L46W, F70Y
# notes: Human IgG1/kappa
# B7: humanized M30 antibody M30-H1-L2 (antibody, human IgG1, kappa, V domains shown)
# VH: B1 VH
# VL: B1 VL with L46W, F70Y
# notes: Human IgG1/kappa
# B8: humanized M30 antibody M30-H1-L7 (antibody, human IgG1, kappa, V domains shown)
# VH: B1 VH
# VL: B1 VL with L45P, F70Y
# notes: Human IgG1/kappa
# B9: humanized M30 antibody M30-H1-L6 (antibody, human IgG1, kappa, V domains shown)
# VH: B1 VH
# VL: B1 VL with L45P
# notes: Human IgG1/kappa
# B10: humanized M30 antibody M30-H4-L1 (antibody, human IgG1, kappa, V domains shown)
# VH: B1 VH with Q1E, R38K, M48I, R67K, V68A, I70Q, A72S, E74K
# VL: B1 VL
# notes: Human IgG1/kappa
# B11: humanized M30 antibody M30-H4-L4 (antibody, human IgG1, kappa, V domains shown)
# VH: B1 VH with Q1E, R38K, M48I, R67K, V68A, I70Q, A72S, E74K
# VL: B1 VL with L45P, R76S
# notes: Human IgG1/kappa
# B12: chimeric antibody M30 (antibody, human IgG1, kappa)
# heavy: not shown
# light: QIVLSQSPTILSASPGEKVTMTCRASSRLIYMHWYQQKPGSSPKPWIYATSNLASGVPARFSGSGSGTSYSLTISRVEAEDAATYYCQQWNSNPPTFGTGTKLELKRTVAAPSVFIFPPSDEQLKSGTASVVCLLNNFYPREAKVQWKVDNALQSGNSQESVTEQDSKDSTYSLSSTLTLSKADYEKHKVYACEVTHQGLSSPVTKSFNRGEC
# notes: Mouse M30 variable regions on human IgG1 / human kappa constant regions; also called cM30; cM30 antibody
# Biological target: T1, extracellular domain polypeptide of a …
# Experiment: SPR (Biacore), antibody captured on anti-human IgG, B7-H3 variant 2 extracellular domain as analyte
# Procedure: (§1) The binding property of the humanized M30 antibody to human B7-H3 which is an antigen was measured by a surface plasmon resonance (SPR) device (Biacore, Inc.). According to a common procedure, an anti-human IgG antibody was immobilized on a sensor chip, and then, each of the purified samples of the humanized M30 antibodies obtained in the above 10)-4 was bound thereto. Thereafter, an extracellular domain polypeptide of the B7-H3 variant 2 antigen (manufactured by R&D Systems, Inc., #2318-B3-050/CF) was added thereto at different concentrations, and the amount of the antigen bound to the antibody in a running buffer (phosphate buffer, 0.05% SP20) was measured over time. The measured amount was analyzed with a dedicated software (BIAevaluation) and a dissociation constant (Kd [M]) was calculated. The measurement was performed using the cM30 antibody as a positive control for each measurement operation.
row,Kd [nM],Binder
1,87,B1
2,160,B2
3,100,B3
4,1.9,B4
5,16,B5
6,140,B6
7,100,B7
8,2.7,B8
9,3.4,B9
10,130,B10
11,12,B11

# Biological target: T1, extracellular domain polypeptide of a …
# Experiment: SPR (Biacore), antibody captured on anti-human IgG, B7-H3 variant 2 extracellular domain as analyte; positive control
# Procedure: as §1
row,Kd [nM],Binder
1,0.73,B12

# Biological target: T1, extracellular domain polypeptide of a …
# Experiment: SPR, antibody captured on immobilized anti-human IgG, B7-H3 variant 2 extracellular domain as analyte; cM30 chimeric antibody, captured on anti-human IgG; experiment 8)-1
# Procedure: The affinity between the M30 antibody or the cM30 antibody and the B7-H3 antigen was measured by a surface plasmon resonance (SPR) device (GE Healthcare Corporation). According to a common procedure, an anti-mouse IgG or an anti-human IgG antibody was immobilized on a sensor chip, and then, the M30 antibody sample or the cM30 antibody was bound thereto. Thereafter, an extracellular domain polypeptide of a recombinant B7-H3 variant 2 antigen (manufactured by R&D Systems, Inc., #2318-B3-050/CF) was added thereto at different concentrations, and the amount of the antigen bound to the antibody in a running buffer (phosphate buffer, 0.05% SP20) was measured over time. The measured amount was analyzed with a dedicated software (BIAevaluation Version 4.1, GE Healthcare Corporation) and a dissociation constant was calculated.
row,Kd [nM],Binder
1,3.43,B12

# Biological target: T1, extracellular domain polypeptide of a …
# Experiment: competition ELISA on plate-coated B7-H3 variant 2 extracellular domain polypeptide; competitor biotinylated M30 (bM30, 5 ug/ml), detected with streptavidin-HRP, OD 450 nm
# Procedure: Each of the extracellular domain polypeptide of the B7-H3 variant 1 (manufactured by R&D Systems, Inc., #1949-B3-050/CF) and the extracellular domain polypeptide of the B7-H3 variant (manufactured by R&D Systems, Inc., #2318-B3-050/CF) was diluted to 0.5 μg/ml with a coating buffer and the resulting solution was dispensed at 100 μL/well in an immunoplate (manufactured by Nunc, Inc., #442404). Then, the plate was left to stand overnight at 4° C., whereby the protein was adsorbed to the plate. On the next day, an assay diluent was dispensed at 200 μL/well, and the plate was left to stand at room temperature for 4 hours.
row,IC50 (read off the curve) [µg/mL],Binder
1,~0.4,B12
2,~0.5,B5
